For data set [1], the target named is T1, LHY:MBP (Arabidopsis thaliana, UniProt Q6R0H1 1-645).
T1 sequence: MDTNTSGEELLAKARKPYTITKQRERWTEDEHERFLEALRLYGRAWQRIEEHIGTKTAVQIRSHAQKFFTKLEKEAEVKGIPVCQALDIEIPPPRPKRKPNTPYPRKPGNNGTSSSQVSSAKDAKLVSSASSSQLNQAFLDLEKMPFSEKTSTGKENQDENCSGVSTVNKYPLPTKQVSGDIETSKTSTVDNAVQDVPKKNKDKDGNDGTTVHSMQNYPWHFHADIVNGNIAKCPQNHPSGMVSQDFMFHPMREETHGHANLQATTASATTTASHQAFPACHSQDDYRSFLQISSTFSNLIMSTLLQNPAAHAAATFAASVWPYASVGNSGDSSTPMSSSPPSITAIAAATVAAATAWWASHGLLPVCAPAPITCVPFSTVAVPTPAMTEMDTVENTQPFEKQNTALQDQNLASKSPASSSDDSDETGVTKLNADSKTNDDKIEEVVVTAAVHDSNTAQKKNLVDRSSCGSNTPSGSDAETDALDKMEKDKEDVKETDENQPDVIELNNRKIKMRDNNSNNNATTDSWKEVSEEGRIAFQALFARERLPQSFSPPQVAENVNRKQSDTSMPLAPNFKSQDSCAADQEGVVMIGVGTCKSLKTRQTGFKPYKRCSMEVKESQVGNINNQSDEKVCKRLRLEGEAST
The data set can be described thus: EMSA. Background: Mobility shift assays separate free from complexed probe on a gel.

Another data set deals with LHY:MBP;WRKY2:HIS (Arabidopsis thaliana;Arabidopsis …, UniProt Q6R0H1;Q9FG77 1-645;1-687, |). Put plainly: EMSA.
Chain of LHY:MBP;WRKY2:HIS (Q9FG77 whole entry, one chain of several): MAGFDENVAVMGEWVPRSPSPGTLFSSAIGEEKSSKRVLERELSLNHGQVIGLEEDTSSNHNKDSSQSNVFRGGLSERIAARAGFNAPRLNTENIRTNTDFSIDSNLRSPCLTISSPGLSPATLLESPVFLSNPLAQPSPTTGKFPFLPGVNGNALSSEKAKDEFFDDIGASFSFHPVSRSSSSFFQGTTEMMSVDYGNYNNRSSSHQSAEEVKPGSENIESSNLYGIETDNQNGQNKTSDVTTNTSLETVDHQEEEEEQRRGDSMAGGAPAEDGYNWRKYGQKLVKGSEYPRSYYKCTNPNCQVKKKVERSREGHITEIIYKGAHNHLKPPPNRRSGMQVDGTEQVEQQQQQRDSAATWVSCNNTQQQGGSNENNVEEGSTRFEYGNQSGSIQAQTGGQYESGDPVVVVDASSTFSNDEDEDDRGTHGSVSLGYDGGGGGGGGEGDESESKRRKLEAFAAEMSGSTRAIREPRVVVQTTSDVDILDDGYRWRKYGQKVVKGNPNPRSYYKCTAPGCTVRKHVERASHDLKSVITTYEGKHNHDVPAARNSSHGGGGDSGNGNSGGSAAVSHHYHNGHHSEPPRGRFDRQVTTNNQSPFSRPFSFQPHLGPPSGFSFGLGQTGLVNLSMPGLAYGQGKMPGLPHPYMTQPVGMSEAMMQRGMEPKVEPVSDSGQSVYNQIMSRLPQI
Another data set addresses LHY:MBP;WRKY10:MYC (Arabidopsis thaliana;Arabidopsis …, UniProt Q6R0H1;Q9LG05 1-645;1-485, |). The data set can be described thus: EMSA.
The target in data set [2] is T2, CCA1:MBP (Arabidopsis thaliana, UniProt P92973 1-608). Put plainly: EMSA.
T2 sequence (P92973 whole entry): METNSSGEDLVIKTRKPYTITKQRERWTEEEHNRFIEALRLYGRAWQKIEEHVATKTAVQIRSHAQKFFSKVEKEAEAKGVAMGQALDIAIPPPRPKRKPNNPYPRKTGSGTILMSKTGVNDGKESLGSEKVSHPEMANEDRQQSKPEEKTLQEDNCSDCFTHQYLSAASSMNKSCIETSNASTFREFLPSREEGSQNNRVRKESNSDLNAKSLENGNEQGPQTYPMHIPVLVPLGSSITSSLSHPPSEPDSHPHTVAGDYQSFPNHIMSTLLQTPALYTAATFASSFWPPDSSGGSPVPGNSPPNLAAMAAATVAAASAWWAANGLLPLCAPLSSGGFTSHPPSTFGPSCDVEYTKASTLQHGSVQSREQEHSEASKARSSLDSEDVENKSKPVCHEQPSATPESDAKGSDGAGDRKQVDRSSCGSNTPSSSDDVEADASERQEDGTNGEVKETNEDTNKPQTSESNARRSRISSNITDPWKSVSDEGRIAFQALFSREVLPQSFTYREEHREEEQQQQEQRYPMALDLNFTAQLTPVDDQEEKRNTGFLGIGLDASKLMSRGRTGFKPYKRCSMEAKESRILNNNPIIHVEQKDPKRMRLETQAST
In data set [3] the target is T1, LHY:MBP. Put plainly: competition.
Data set [4] has as its target T2, CCA1:MBP. Put plainly: competition.
Data set [5] has as its target T3, WRKY2:HIS (Arabidopsis thaliana (Col), UniProt Q9FG77 1-687). The data set can be described thus: competition.
Data set [6] deals with T4, WRKY10:MYC (Arabidopsis thaliana (Col), UniProt Q9LG05 1-485). Put plainly: competition.
T4 sequence (Q9LG05 whole entry): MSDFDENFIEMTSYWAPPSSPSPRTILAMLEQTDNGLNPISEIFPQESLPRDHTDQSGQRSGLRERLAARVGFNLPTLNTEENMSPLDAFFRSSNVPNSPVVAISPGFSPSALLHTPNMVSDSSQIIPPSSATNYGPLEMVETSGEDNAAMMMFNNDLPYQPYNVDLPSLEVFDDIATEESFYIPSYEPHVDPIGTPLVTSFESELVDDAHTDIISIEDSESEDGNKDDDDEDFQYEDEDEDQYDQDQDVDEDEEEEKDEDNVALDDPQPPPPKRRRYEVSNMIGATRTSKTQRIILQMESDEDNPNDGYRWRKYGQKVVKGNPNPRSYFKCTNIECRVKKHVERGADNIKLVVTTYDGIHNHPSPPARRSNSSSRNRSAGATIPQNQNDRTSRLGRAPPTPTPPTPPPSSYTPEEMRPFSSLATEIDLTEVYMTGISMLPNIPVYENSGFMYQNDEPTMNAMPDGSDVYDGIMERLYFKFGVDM
The target of data set [7] is T4, WRKY10:MYC. The data set can be described thus: EMSA.
For data set [8], the target named is T3, WRKY2:HIS. Put plainly: EMSA.

This note sets out measurements from paper PMC9073327.

Residue numbers refer to the chain shown, from its start.

T3 sequence (Q9FG77 whole entry): as the sequence (Q9FG77 whole entry, one chain of several) above
Chain of LHY:MBP;WRKY10:MYC (Q9LG05 whole entry, one chain of several): as the sequence (Q9LG05 whole entry) above

B1: PIF4 M1-box probe (4M1) (dsDNA)
DNA 1: ATCTCCCTCGCTGTAATATCTTTATGCTCCTGTCACT
DNA 2: AGTGACAGGAGCATAAAGATATTACAGCGAGGGAGAT
Turning to B1, the binding result with LHY:MBP [1], with LHY:MBP;WRKY2:HIS, in the data set with LHY:MBP;WRKY10:MYC and with CCA1:MBP [2] was “binds” in each case.

B2: PIF4 M1-box mutant competitor (4M1 mut) (dsDNA)
DNA 1: B1 DNA 1 with A18T, T19G
DNA 2: B1 DNA 2 with A19C, T20A
Consider B2, for which the binding result in the data set with LHY:MBP [3] and with CCA1:MBP [4] was “no binding” each time.

B3: PIF4 W1-box mutant competitor (4W1 mut) (dsDNA)
DNA 1: CTATAGATGATTGTGATGGTGTGAAAACACCCTCAAATCA
DNA 2: TGATTTGAGGGTGTTTTCACACCATCACAATCATCTATAG
Take B3: the binding result in the data set with WRKY2:HIS [5] and with WRKY10:MYC [6] was “no binding” throughout.

B4: PIF4 W1-box probe (4W1) (dsDNA)
DNA 1: CTATAGATGATTGTGATTTGACAAAAACACCCTCAAATCA
DNA 2: TGATTTGAGGGTGTTTTTGTCAAATCACAATCATCTATAG
As to B4, the binding result with WRKY10:MYC [7] and with WRKY2:HIS [8] was “binds” throughout.
